Measurements: paper PMC8679000, “Biochemical Characterizations of Human TMPK Mutations Identified in Patients with Severe Microcephaly: Single Amino Acid Substitutions Impair Dimerization and Abolish Their Catalytic Activity” (ACS Omega, 2021)

B1: wild-type human deoxythymidylate kinase (TMPK) [human] / itself (parent)
chain: MAARRGALIVLEGVDRAGKSTQSRKLVEALCAAGHRAELLRFPERSTEIGKLLSSYLQKKSDVEDHSVHLLFSANRWEQVPLIKEKLSQGVTLVVDRYAFSGVAFTGAKENFSLDWCKQPDVGLPKPDLVLFLQLQLADAAKRGAFGHERYENGAFQERALRCFHQLMKDTTLNWKMVDASKSIEAVHEDIRVLSEDAIRTATEKPLGELWK

Variants of: B1
Experiment: size-exclusion chromatography, protein concentration of fractions
Details: with itself, 200 µg enzyme loaded, 0.4 mL fractions
[1] = fraction F18 (monomer fraction)
[2] = fraction F19 (monomer fraction)
[3] = fraction F20 (monomer fraction)

| Variant | screen value (fraction F15 (dimer fraction)) | screen value (fraction F16 (dimer fraction)) | screen value [1] | screen value [2] | screen value [3] |
| --- | --- | --- | --- | --- | --- |
| chain 1 P81L | 0.002 mg/mL | 0.009 mg/mL | 0.024 mg/mL | 0.016 mg/mL | 0.013 mg/mL |
| chain 1 A99T | 0.006 mg/mL | 0.01 mg/mL | 0.019 mg/mL | 0.015 mg/mL | 0.012 mg/mL |
| chain 1 D128N | 0.004 mg/mL | 0.005 mg/mL | 0.016 mg/mL | 0.019 mg/mL | 0.012 mg/mL |
